B1: L-phenylserine dehydrogenase (ORF3; L-PSDH) (Pseudomonas syringae) (protein)
chain: MSFPVCLVTGAATGIGAATALRFARDGWGVAINNFDDSTRADAERVAAQCREAGAQTLVIDADVGDDGACRRMVEQVAAQWGRIDALVNSAGTTRVIPHSDFEAIDPDEFERIYRVNLIGMFQMTRAATPLLRESFCPGHFASVLHVSSLASLYGTGLHPAYAASKGAVNSLTLSLARNLAPLVRVNAIAPGMVDDGLLRRVLGDEADGRVVESMRENAPLKRVSQPAEIAELAWFLAAHAPAMTGQVLAIENGLLLNT
notes: 98 kDa native, probably homotetramer; AB499092 is the 9,246-bp operon entry, which also holds D-phenylserine dehydrogenase (orf5)

How the values were obtained:
[1] = target: L-phenylserine dehydrogenase (ORF3) from Pseudomonas syringae NK-15 (Pseudomonas syringae NK-15); test: SEC; HPLC gel filtration on a TSK-GEL G3000SW column (0.75 x 60 cm) at room temperature, 0.1 M potassium phosphate buffer (pH 7.0) with 0.2 M NaCl, 0.7 ml/min; native mass 98 kDa against a subunit of 27 kDa by SDS-PAGE
[2] = substrate: NC(=O)c1ccc[n+]([C@@H]2O[C@H](COP(=O)(O)OP(=O)(O)OC[C@H]3O[C@@H](n4cnc5c(N)ncnc54)[C@H](O)[C@@H]3O)[C@@H](O)[C@H]2O)c1; test: purified protein; format: biochemical, Pseudomonas syringae; settings: DL-threo-β-phenylserine as co-substrate, 0.2 M glycine-KCl-KOH pH 10.5, 30°C (standard assay), varied: cofactor
[3] = substrate: NC(C(=O)O)C(O)c1ccccc1; test: purified protein; format: biochemical, Pseudomonas syringae; settings: NAD+ as co-substrate, 0.2 M glycine-KCl-KOH pH 10.5, 30°C (standard assay), racemic DL-threo substrate

Molecule | stoichiometry N [1] | Km [2] [mM] | Km [3] [mM]
L-phenylserine dehydrogenase (ORF3) from Pseudomonas syringae NK-15 (enzyme) | 4 | – | –
B1 | – | 2.1 | 59

Source: publication PMC2963168, “Identification, Cloning, and Characterization of L-Phenylserine Dehydrogenase from Pseudomonas syringae NK-15” (Enzyme Research, 2010)
